Measurements taken from article doi:10.1101/2021.01.28.428596.

Biological target: RIR1-GFP (ProRIR1:RIR1-GFP in the rir1-1 mutant) (Arabidopsis thaliana) (UniProt C0LGG9)
Assay: FRET or BRET

UniProt C0LGG9, sequence (C0LGG9 27-1035, change not shown): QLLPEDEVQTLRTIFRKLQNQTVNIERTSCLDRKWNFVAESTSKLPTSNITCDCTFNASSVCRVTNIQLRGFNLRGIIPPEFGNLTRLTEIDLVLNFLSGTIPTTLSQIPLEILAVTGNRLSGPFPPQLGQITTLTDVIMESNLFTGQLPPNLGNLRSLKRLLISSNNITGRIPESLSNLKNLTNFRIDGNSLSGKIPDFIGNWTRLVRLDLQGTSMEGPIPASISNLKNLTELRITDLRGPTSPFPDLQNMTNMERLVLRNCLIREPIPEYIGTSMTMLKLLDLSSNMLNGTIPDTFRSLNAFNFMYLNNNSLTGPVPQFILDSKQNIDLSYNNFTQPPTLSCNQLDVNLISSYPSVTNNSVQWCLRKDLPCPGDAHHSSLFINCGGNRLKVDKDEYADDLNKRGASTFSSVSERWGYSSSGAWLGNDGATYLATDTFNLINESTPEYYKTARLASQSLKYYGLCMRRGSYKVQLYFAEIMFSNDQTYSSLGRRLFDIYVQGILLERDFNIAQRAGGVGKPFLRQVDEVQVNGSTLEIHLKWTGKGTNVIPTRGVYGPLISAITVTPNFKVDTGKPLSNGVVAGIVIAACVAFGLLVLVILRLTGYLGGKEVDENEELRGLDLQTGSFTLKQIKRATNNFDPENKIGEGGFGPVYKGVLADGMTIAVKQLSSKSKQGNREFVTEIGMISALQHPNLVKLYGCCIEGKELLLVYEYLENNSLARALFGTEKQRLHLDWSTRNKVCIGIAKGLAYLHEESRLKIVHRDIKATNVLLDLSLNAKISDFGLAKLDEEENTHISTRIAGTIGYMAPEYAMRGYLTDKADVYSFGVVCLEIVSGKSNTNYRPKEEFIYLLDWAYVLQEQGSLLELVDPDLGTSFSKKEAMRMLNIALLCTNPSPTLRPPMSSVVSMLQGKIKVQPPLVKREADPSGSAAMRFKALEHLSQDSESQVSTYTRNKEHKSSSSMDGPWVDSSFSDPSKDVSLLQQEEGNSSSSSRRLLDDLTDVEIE

With “mCherry-REM1.2 (ProREM1.2-mCherry-REM1.2 in rir1-1/RIR1-GFP#3) (from UniProt P0CAP4 1-446) (natural protein)” the GFP donor fluorescence lifetime with acceptor (τDA) was 2.21 ns.
